{"source": "the DeepSol protein solubility set"}
{"assay": "soluble on expression in E. coli; label from the status in PepcDB or PDB records"}
{"sequence": "MGILNKILTAFRGGATEVGQSIVDANSTRIFEQEIRDAEKHLTNAKRELTDVMAKEMQASREVDRLKRSIAEHEGYVTQALDKGNEALAIEVAEKIAQLEQELAEQQTANDSFSAHALRLKDLVKKTERQLSDYQRQLSMVKTTESVQKATATITDSFASSNSKLLNAKDSLERIKARQQQFDDRLKAAETLAEEGSDKSLQAKLAEAGIGEQKSNANAVLERIKARKSLEHHHHHH", "soluble on expression in E. coli": "not soluble"}
{"sequence": "MGKALLIVNPSSGKEKGKTYQGKTEEVLKKRYDEVEVRLTEKAGDATEFASWASEQGFDAVIAMGGDGTLNETINGLAIHEKRPDFGFIPLGTVNDLARSVGIPLKPEKAIQALEKAKAIPMDIGRIGDQ", "soluble on expression in E. coli": "not soluble"}
{"sequence": "MGKHEKGSSKDLANRTKSKGLQKLKFFCQMCQKQCRDANGFKCHLTSEAHQRQLLLFAENSNSYLRQFSNDFEKNFMQLLRTSYGTKRVRANEVYNAFIKDKGHVHMNSTVWHSLTGFVQYLGSSGKCKIDEGDKGWYIAYIDQEALIRKEEDQRKQQQEKDDEERHMQIMDGMVQRGKELAGDDEHEYEATELIRDTPDQKIQLDLNLGILDRKLDVKSGVASAKISIFDMPKVKKEDPDEPGPSQPSRKSGKKRSRSRSPAAKKFSKKSALDEIKEMEERKKERKNRKDYWMREGIVVKVITKSLGSEYYKAKGVVRKVVDDYTAQVKLDDGTVVKLDQEHVETVIPSLGRQMMIVNGAYRGQEATLESIDEKRFSLRLKIASGPTRGRQIDVPYEDASKLA", "soluble on expression in E. coli": "not soluble"}
{"sequence": "MGKLYVVPTPVGNLEDMTFRAIKVLKEADLILAEDTRTSGILLKHFEIKNVMQSHHKFNEHKTVESVVNRIKAGETIALISDAGTPGISDPGFLVVRECVRNGIEVQCLPGA", "soluble on expression in E. coli": "not soluble"}
{"sequence": "MGKRKAFIDKKASQSFRLVPDNRERSERFKPTQEHLEEQQKYGVYYDDDYDYLQHMRAVNEPMKLENVHEEVEKTTIKTSGSSAFPPAPPLFGLVGALKKPEFFDEDVANALEEVTDDRNTGELEDNFITLAGGLLDERTTVYRSTRRGEDSEEEEDDDEDDEMYDDYNDDELFGEEAVGEIRVERADQRVIDNAFEELMDREYNTDQIGELDGDDYDVGGALEPNAGRLHKLINDKGPSNAEYDEELAKHYVRERMRLIEEGVIKDKEEYEIVEVDEGTNKKMKWDCESFATQYTNIYNHPTLIKEPRGLSRKALKRFDKAVEEMDIAEEDEDDDEDMEDDDDKESVFSTVSTFRPKNETPEQRSLRKKAVKEARKLRRVEKKANKTMFAEEKRKLAKGRIGQIKARPI", "soluble on expression in E. coli": "not soluble"}
{"sequence": "MGKRKSKRKAPTKAKAVMPLDTQFNCPFCNHERVCEVKMDREKNVGYISCRVCSEDFQTNINYLSEPIDVYSDWVDACEQANNA", "soluble on expression in E. coli": "not soluble"}
{"sequence": "MGKTQEFLRLRRIIALSSLLASRKSAMCLAVLALHAIPGLPVLIAANRDEFHARPTAEATRWPGSPAIYAGRDLQAGGTWLGVSDQGRYAVVTNFRDPRNIQPDAPSRGALVEAFLRGAASAQEYLRDVHARGARYNGFNLIVGDAGGAWYCSNRDGAPQRLAAGVYALSNHLLDTPWPKLARTKAAFERIIAATPQPDLAALYAALADPTPAADHELPATGLALERERLLSSPFIVSPDYGTRSACILALHDDGRGELHERRFRPDGAIAGQADLDFPWRAARAELHRASCVLEHHHHHH", "soluble on expression in E. coli": "not soluble"}
{"sequence": "MGLCVSVNRNEYVSSSTTAKIVTINGDLREYDVPVLASQVLESESTSSSSSSSSSSYFLCNSDSLYYDDFIPAIESDEILQANQIYFVLPISKRQYRLSASDMAALAVKASVAIEKAAGKKNRRRRSGRISPVVTLNQANDNRIAAVNNRIGGEATNMMMQKGKLPNRTTPFKDTNGYSRSGSVRKLKRYTSGRAKLAVRSFRLRLSTIYEGSSFN", "soluble on expression in E. coli": "not soluble"}
{"sequence": "MGLDIRFTGVADSSGALHDPDGLDIRGVLEHKKRAGLGSHPSGYEGMTGDELLDEAEYDCLVEATPTNIEDGEPGRSLVLKAMGDGKHVVTSNKGHLALFYSELMEAASEAGVEFMFEASVGGAMPIINLARETLASCTIESVIGILNGTTNFILSRMASEGSSYRQALIEAQELGIAETNPAQDVEGTDAACKAVIIANSILGRPCTLRDVRVEGITGITQGAIELAAQEGYLIKLIAEISGDRLEVGPRLVRMGSPYAVDGTLNMATLRTDLAGEVTAVGRGAGSLETASAMLTDTITIWRKSGLEHHHHHH", "soluble on expression in E. coli": "not soluble"}
{"sequence": "MGLFQIKPDIHYGANSLDILRTLEMEKVFLVTDENMVKLKVINKVTNILKSRGIEAKVYSDVKPDPTDEEIIKGMLELSAHDPDCIIALGGGSPIDACKSMIYFTNQIKRAMGQNKKPKFIAIPTTSGTGSEVTSYAVVTTKDKKIPLSDSEMLPDIAILNPEFIKTLSPSIIADTGMDVLTHAIEAYVSKSRNLFTNTFAIGAIKTVFADLVSNFENPQLEKERINLQIASCMAGVAFSNAGLGINHSIAHSLGARFHKPHGRLNAVIMSEVIQFNARNKNAAKYYREIVEALGFSPKEDVEGVEILAKAIKMRAAKMGIPNSLSELGIPKEQYFDEMEGIIDQIENDMCTGENPRRFSRIEMKQLLTDLY", "soluble on expression in E. coli": "not soluble"}
{"sequence": "MGLIIYHKGGRKMKKNILIVGGGPEITICYDLINNSTEYNFFSVSEIPTMYPELFVETIETSFRNFGKTIEQIKELKYSIDAVACWDEALTHIADDISKELGLNPISSLDSQSFRFKDRMRMVCEAGGLKMPKYKIINQFSDTNKIINWKYPLIVKPTSFLASIGVKKVYNFSELQQAVSQMLNVKFPVYIASGVYELGELYNLEPRVLVEEFIDGEEYSLESVVRNGIYTPLGITKKIVDEKLFMDEIGHIFPSNLNKEEKSRVYSWAEKLHQILQLNHITTHTEFRIGRNGDIILIEIGARIGGDCIPNLMKNSFIVKGFDFYNTYLKARLGLQEELNTDTNKFSGIVFFRLNPENYGKIFNGVSYDAPKTSLIFEEKIYKKEGTVLPNPINWSNERVGYVCLENKEYAVLEKEMKEILKSLSIE", "soluble on expression in E. coli": "not soluble"}
{"sequence": "MGLISAAVGAVGGGLADQWLEVIEAGDMGEGIVLAKGVAVRTDKRNTNKKGSSDVVSNGSIIHVNQNQFMMLVDGGKIVDYTAEPGYFKVENSASPSLFGGQFGDALKETFSRFKFGGTTPMKQEVFYVNLQEIKGIKFGTPNPLQYFDNFYNAELFLRTFGNYSIKITDPIKFFKEACPRDAENVHIDEINEQYLSEFLEALQAAISQMSMEGERISFIPSKGTVLSKHMSEILDDSWKELRGMEVLSVGIASISYDDESKELINMRNKGAMLGDPGVREGYVQGSIARGMEAAGSNQAGAGMAFMGMGMGMNAAGGFMGQASQTNMQQMQMNQAAQRAAQGAGQQQGAGAKAAGEWFCTECGHKNTGKFCAECGTPKPQGLEHHHHHH", "soluble on expression in E. coli": "soluble"}
{"sequence": "MGLLALGTPLQWFESRTYNEHIRDEGIEQLLYIFQAAGKRDNDPLFWGDELEYMVVDFDDKERNSMLDVCHDKILTELNMEDSSLCEANDVSFHPEYGRYMLEATPASPYLNYVGSYVEVNMQKRRAIAEYKLSEYARQDSKNNLHVGSRSVPLTLTVFPRMGCPDFINIKDPWNHKNAASRSLFLPDEVINRHVRFPNLTASIRTRRGEKVCMNVPMYKDIATPETDDSIYDRDWFLPEDKEAKLASKPGFIYMDSMGFGMGCSCLQVTFQAPNINKARYLYDALVNFAPIMLAFSAAAPAFKGWLADQDVRWNVISGAVDDRTPKERGVAPLLPKYNKNGFGGIAKDVQDKVLEIPKSRYSSVDLFLGGSKFFNRTYNDTNVPINEKVLGRLLENDKAPLDYDLAKHFAHLYIRDPVSTFEELLNQDNKTSSNHFENIQSTNWQTLRFKPPTQQATPDKKDSPGWRVEFRPFEVQLLDFENAAYSVLIYLIVDSILTFSDNINAYIHMSKVWENMKIAHHRDAILFEKFHWKKSFRNDTDVETEDYSISEIFHNPENGIFPQFVTPILCQKGFVTKDWKELKHSSKHERLYYYLKLISDRASGELPTTAKFFRNFVLQHPDYKHDSKISKSINYDLLSTCDRLTHLDDSKGELTSFLGAEIAEYVKKNKPSIESKCDKLAAALGHHHHHH", "soluble on expression in E. coli": "soluble"}
{"sequence": "MGLMKFQLFIQPKLDVLQGNIVEYEILLRDDSAVPRFPLSELEAVLADEELYLAFSEWFSEAFLDVLKKYPNDRFAINIAPQQLFYIETLHWLDKLKSESHRITVEMTEDIFDVPGHKRHLNANDKNAFILNKIKVIHGLGYHIAIDDVSCGLNSLERVMSYLPYIIEIKFSLIHFKNIPLEDLLLFIKAWANFAQKNKLDFVVEGIETKETMTLLESHGVSIFQGYLVNKPFPV", "soluble on expression in E. coli": "soluble"}
